Experimental data as given in patent US11583572B2, “Encapsulation of ultra-stable insulin analogues with polymer melts” (CASE WESTERN RESERVE UNIVERSITY, priority 2015, dated 2023).
Bridges are numbered along the chain shown (N, C = ends). Where no end group is shown, it is not given here.

Legend:
[1] = Elution of protein from PLGA polymer cylinders in phosphate-buffered saline (Bradford assay calibrated by ELISA); type: physicochemical; conditions: 5% PEG, PBS pH 7.4, 37° C.
Experimental: FIG. 4 is a graph showing elution of ultra-stable single-chain analogue (SCI) from PLGA polymer (50-50%) in phosphate-buffered saline (pH 7.4 and 37° C.). Horizontal axis denotes soaking time. Vertical axis denotes nanograms of insulin analogue (dark gray triangles) or relative Bradford-active material in control polymers containing hen egg white lysozyme (light gray squares) or no protein (dark gray diamonds). The latter represents background signal in the Bradford assay due to non-protein material. Horizontal plateau at days 10-15 represents no further elution of protein from the polymers. Samples were made with 5% PEG (mean molecular mass 8 kDa) to optimize the near-linear rate of SCI elution between 1-10 days. Immediate burst release of a portion of the material is not shown.
Elution of insulin analogue protein from a polymer melt in phosphate buffered saline (PBS) at pH 7.4 was also examined. Test cylindrical polymers were prepared with 50%-50% PLGA containing 25% weight/weight of a single-chain insulin (SCI) analogue stabilized by a fourth disulfide bridge between residues B4 and A10. […]
The cumulative amounts of protein released are also provided below in Table 1. In this table the micrograms of insulin corresponding to the Bradford assay was verified by ELISA whereas the readings for lysozyme are uncalibrated by an independent assay.

[2] = molecular target: A isoform of the insulin receptor (Homo sapiens, UniProt P06213)
Chain of A isoform of the insulin receptor (P06213 28-746 isoform P06213-2 limits assumed): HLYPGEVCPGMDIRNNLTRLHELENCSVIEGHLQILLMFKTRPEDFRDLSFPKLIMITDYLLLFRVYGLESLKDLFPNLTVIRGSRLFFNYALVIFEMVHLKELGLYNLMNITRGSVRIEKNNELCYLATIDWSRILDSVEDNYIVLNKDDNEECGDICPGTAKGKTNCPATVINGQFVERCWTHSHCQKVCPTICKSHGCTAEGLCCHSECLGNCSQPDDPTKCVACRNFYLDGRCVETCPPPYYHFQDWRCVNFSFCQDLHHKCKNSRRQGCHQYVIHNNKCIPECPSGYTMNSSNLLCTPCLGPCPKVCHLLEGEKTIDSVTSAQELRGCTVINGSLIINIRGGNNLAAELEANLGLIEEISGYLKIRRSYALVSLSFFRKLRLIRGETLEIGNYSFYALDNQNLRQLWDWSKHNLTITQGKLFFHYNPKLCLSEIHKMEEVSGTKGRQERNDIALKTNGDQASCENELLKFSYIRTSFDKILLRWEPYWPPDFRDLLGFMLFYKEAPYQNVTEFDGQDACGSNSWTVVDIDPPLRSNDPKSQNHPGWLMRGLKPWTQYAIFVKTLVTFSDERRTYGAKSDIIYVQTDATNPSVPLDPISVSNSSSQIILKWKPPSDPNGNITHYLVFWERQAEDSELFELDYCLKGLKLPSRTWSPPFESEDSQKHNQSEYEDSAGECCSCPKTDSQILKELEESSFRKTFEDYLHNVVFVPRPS
Chain of A isoform of the insulin receptor (P06213 763-1382 partner limits assumed): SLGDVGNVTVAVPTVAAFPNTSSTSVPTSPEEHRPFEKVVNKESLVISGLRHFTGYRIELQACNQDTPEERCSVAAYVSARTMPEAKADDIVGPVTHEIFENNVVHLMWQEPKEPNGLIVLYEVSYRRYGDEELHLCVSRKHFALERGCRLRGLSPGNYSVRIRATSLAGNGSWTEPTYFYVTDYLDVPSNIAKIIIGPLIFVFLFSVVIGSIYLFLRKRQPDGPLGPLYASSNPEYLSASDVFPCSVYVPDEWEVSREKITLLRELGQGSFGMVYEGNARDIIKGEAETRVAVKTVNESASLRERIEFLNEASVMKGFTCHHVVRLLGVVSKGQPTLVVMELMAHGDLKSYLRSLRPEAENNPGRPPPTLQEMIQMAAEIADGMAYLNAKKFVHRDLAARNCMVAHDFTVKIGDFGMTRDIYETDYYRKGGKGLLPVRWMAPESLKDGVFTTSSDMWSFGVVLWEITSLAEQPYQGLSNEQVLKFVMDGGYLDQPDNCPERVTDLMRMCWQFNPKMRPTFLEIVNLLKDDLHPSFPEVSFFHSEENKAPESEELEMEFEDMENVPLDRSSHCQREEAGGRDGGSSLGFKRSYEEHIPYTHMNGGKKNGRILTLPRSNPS

Substance | protein release from PLGA polymer during days 10-15 [1] | affinity for the A isoform of the insulin receptor relative to human insulin [2] [%]
hen egg-white lysozyme: control protein in analogous co-polymer instead of an insulin analogue | no further release | 
FVNCHLCGSHLVEALYLVCGERGFFYTDPTEEGPRRGIVEQCCHSCCSLEQLENYCN (disulfide 4-46, 7-43, 19-56, 42-47) [4SS 81-04] |  | 120±20
